In US20230364254A1, “METHODS FOR TREATING CANCERS WITH ANTIBODY DRUG CONJUGATES (ADC) THAT BIND TO 191P4D12 PROTEINS” (priority 2020, published 2023):

Tested on: patients with locally advanced or metastatic urothelial cancer
Assay: Same phase 2 study: safety (adverse events, NCI CTCAE v4.03)
Type: in vivo, human
Details: Cohort 2 (N = 89)
From the text: Safety assessments will be based on the information collected through the safety surveillance process and will include the data from recorded adverse events (AEs) including SAEs, recording of concomitant medication, physical examination findings, cardiac monitoring, and laboratory tests.
The assessment of safety during the course of this study will consist of the surveillance and recording of AEs including SAEs, recording of concomitant medication, and measurements of protocol-specified physical examination findings, cardiac monitoring, and laboratory tests.
AE severity should be graded using the National Cancer Institute's Common Terminology Criteria for Adverse Events (NCI CTCAE), Version 4.03. These criteria are provided in the study manual.
An overview of AEs will provide a tabulation of the incidence of all AEs, treatment-emergent AEs, treatment-related AEs, Grade 3 and higher AEs. SAEs, treatment-related SAEs, deaths, and AEs leading to study treatment discontinuation. Adverse events will be defined as treatment emergent if they are newly occurring or worsened following study treatment.
AEs will be classified by system organ class and preferred tem using the Medical Dictionary for Regulatory Activities (MedDRA) and graded using NCI CTCAE, Version 4.03.
The incidence of AEs will be summarized by system organ class, preferred term, severity and relationship to study drug. In the event of multiple occurrences of the same AE in one patient, the AE will be counted once as the occurrence for the maximum grade. AEs leading to premature discontinuation of study drug will be summarized and listed in the same manner.

enfortumab vedotin: Nectin-4 directed ADC: fully human anti-nectin-4 IgG1 kappa antibody (AGS-22C3) conjugated to MMAE via protease-cleavable maleimidocaproyl valine-citrulline linker
AE of special interest, All Grade: Ocular Events, Blurred Vision: 9 (10.1) N (%) | AE of special interest, All Grade: Ocular Events, Corneal Disorders: 5 (5.6) N (%) | AE of special interest, All Grade: Ocular Events, Dry Eye Disorders: 27 (30.3) N (%) | AE of special interest, All Grade: Peripheral Neuropathy: 51 (58.4) N (%) | AE of special interest, All Grade: Rash: 59 (66.3) N (%) | AE of special interest, ≥Gr 3: Hyperglycemia: 8 (9) N (%) | AE of special interest, ≥Gr 3: IRR: 1 (1.1) N (%) | AE of special interest, ≥Gr 3: Peripheral Neuropathy: 7 (7.9) N (%) | AE of special interest, ≥Gr 3: Rash: 15 (16.9) N (%) | Any TEAEs: 89 (100.0) n (%) | Any TEAEs leading to death: 8 (9.0) n (%) | Any TEAEs leading to treatment discontinuation: 18 (20.2) n (%) | Any grade 3-5 TEAEs: 62 (69.7) n (%) | Any serious TEAEs: 35 (39.3) n (%) | SAEs (All): Acute kidney injury: 9 (10.1) n (%) | SAEs (All): Diarrhoea: 3 (3.4) n (%) | SAEs (All): Febrile neutropenia: 1 (1.1) n (%) | SAEs (All): Nausea: 2 (2.2) n (%) | SAEs (All): Overall: 35 (39.3) n (%) | SAEs (All): Pneumonia: 3 (3.4) n (%) | SAEs (All): Sepsis: 4 (4.5) n (%) | SAEs (All): Urinary tract infection: 3 (3.4) n (%) | SAEs (Related): Acute kidney injury: 3 (3.4) n (%) | SAEs (Related): Diarrhoea: 2 (2.2) n (%) | SAEs (Related): Febrile neutropenia: 1 (1.1) n (%) | SAEs (Related): Nausea: 1 (1.1) n (%) | SAEs (Related): Overall: 15 (16.9) n (%) | SAEs (Related): Pneumonia: 1 (1.1) n (%) | Treatment-related AE leading to discontinuation: Acute kidney injury: 2 (2.2) n (%) | Treatment-related AE leading to discontinuation: Dermatitis bullous: 1 (1.1) n (%) | Treatment-related AE leading to discontinuation: Lipase increased: 2 (2.2) n (%) | Treatment-related AE leading to discontinuation: Metabolic acidosis: 1 (1.1) n (%) | Treatment-related AE leading to discontinuation: Multiple organ dysfunction syndrome: 1 (1.1) n (%) | Treatment-related AE leading to discontinuation: Muscular weakness: 1 (1.1) n (%) | Treatment-related AE leading to discontinuation: Overall: 14 (15.7) n (%) | Treatment-related AE leading to discontinuation: Peripheral motor neuropathy: 1 (1.1) n (%) | Treatment-related AE leading to discontinuation: Peripheral sensory neuropathy: 4 (4.5) n (%) | Treatment-related AE leading to discontinuation: Pneumonitis: 1 (1.1) n (%) | Treatment-related TEAEs: 86 (96.6) n (%) | Treatment-related TEAEs (all grades): Alopecia: 45 (50.6) n (%) | Treatment-related TEAEs (all grades): Anaemia: 22 (24.7) n (%) | Treatment-related TEAEs (all grades): Aspartate aminotransferase increased: 7 (7.9) n (%) | Treatment-related TEAEs (all grades): Decreased appetite: 29 (32.6) n (%) | Treatment-related TEAEs (all grades): Diarrhoea: 20 (22.5) n (%) | Treatment-related TEAEs (all grades): Dry eye: 11 (12.4) n (%) | Treatment-related TEAEs (all grades): Dry skin: 16 (18.0) n (%) | Treatment-related TEAEs (all grades): Dysgeusia: 24 (27.0) n (%) | Treatment-related TEAEs (all grades): Fatigue: 30 (33.7) n (%) | Treatment-related TEAEs (all grades): Lacrimation increased: 9 (10.1) n (%) | Treatment-related TEAEs (all grades): Nausea: 20 (22.5) n (%) | Treatment-related TEAEs (all grades): Neutropenia: 11 (12.4) n (%) | Treatment-related TEAEs (all grades): Oedema peripheral: 10 (11.2) n (%) | Treatment-related TEAEs (all grades): Overall: 86 (96.6) n (%) | Treatment-related TEAEs (all grades): Peripheral sensory neuropathy: 42 (47.2) n (%) | Treatment-related TEAEs (all grades): Pruritus: 27 (30.3) n (%) | Treatment-related TEAEs (all grades): Rash maculo-papular: 27 (30.3) n (%) | Treatment-related TEAEs (all grades): Vomiting: 7 (7.9) n (%) | Treatment-related TEAEs (all grades): Weight decreased: 23 (25.8) n (%) | Treatment-related TEAEs leading to death: 3 (3.4) n (%) | Treatment-related TEAEs leading to treatment discontinuation: 14 (15.7) n (%) | Treatment-related TEAEs ≥Grade 3: Acute kidney injury: 4 (4.5) n (%) | Treatment-related TEAEs ≥Grade 3: Amylase increased: 3 (3.4) n (%) | Treatment-related TEAEs ≥Grade 3: Anaemia: 5 (5.6) n (%) | Treatment-related TEAEs ≥Grade 3: Aspartate aminotransferase increased: 2 (2.2) n (%) | Treatment-related TEAEs ≥Grade 3: Decreased appetite: 5 (5.6) n (%) | Treatment-related TEAEs ≥Grade 3: Diarrhoea: 5 (5.6) n (%) | Treatment-related TEAEs ≥Grade 3: Fatigue: 6 (6.7) n (%) | Treatment-related TEAEs ≥Grade 3: Febrile neutropenia: 1 (1.1) n (%) | Treatment-related TEAEs ≥Grade 3: Hyperglycaemia: 5 (5.6) n (%) | Treatment-related TEAEs ≥Grade 3: Hyponatraemia: 3 (3.4) n (%) | Treatment-related TEAEs ≥Grade 3: Lipase increased: 5 (5.6) n (%) | Treatment-related TEAEs ≥Grade 3: Neutropenia: 8 (9.0) n (%) | Treatment-related TEAEs ≥Grade 3: Neutrophil count decreased: 3 (3.4) n (%) | Treatment-related TEAEs ≥Grade 3: Overall: 49 (55.1) n (%) | Treatment-related TEAEs ≥Grade 3: Peripheral sensory neuropathy: 3 (3.4) n (%) | Treatment-related TEAEs ≥Grade 3: Pruritus: 3 (3.4) n (%) | Treatment-related TEAEs ≥Grade 3: Rash erythematous: 2 (2.2) n (%) | Treatment-related TEAEs ≥Grade 3: Rash maculo-papular: 7 (7.9) n (%) | Treatment-related grade 3-5 TEAEs: 49 (55.1) n (%) | Treatment-related serious TEAEs: 15 (16.9) n (%) | TRAEs, Any Grade: Alopecia (additional 3 months follow-up): 45 (51) n (%) | TRAEs, Any Grade: Anemia (additional 3 months follow-up): 22 (25) n (%) | TRAEs, Any Grade: Decreased appetite (additional 3 months follow-up): 29 (33) n (%) | TRAEs, Any Grade: Diarrhea (additional 3 months follow-up): 20 (22) n (%) | TRAEs, Any Grade: Dysgeusia (additional 3 months follow-up): 25 (28) n (%) | TRAEs, Any Grade: Fatigue (additional 3 months follow-up): 30 (34) n (%) | TRAEs, Any Grade: Hyperglycemia (additional 3 months follow-up): 8 (9) n (%) | TRAEs, Any Grade: Lipase increased (additional 3 months follow-up): 7 (8) n (%) | TRAEs, Any Grade: Nausea (additional 3 months follow-up): 20 (22) n (%)
